Source: patent US20020147168

Tests used:
Experiment in all cases: cell_activity
[1] = tested on: Cre recombinase S2A (Bacteriophage P1); details: pBS210 excision in Nicotiana plumbaginifolia protoplasts, 72 h; pBS210 alone 0
[2] = tested on: nlsCre recombinase S2A (Bacteriophage P1); details: pBS210 excision in Nicotiana plumbaginifolia protoplasts, 72 h; pBS210 alone 0
[3] = tested on: nlsCre recombinase from intron-containing gene (inlscre) S2A (Bacteriophage P1); details: pBS210 excision in Nicotiana plumbaginifolia protoplasts, 72 h; also in planta excision in tobacco from pBS229

loxP sites in direct repeat (pBS210, pBS229)
activity (GUS units/25 ug protein) [1]: 133
activity (GUS units/25 ug protein) [2]: 141
activity (GUS units/25 ug protein) [3]: 51
